Our source for the switch fluorescence ratio values is the supplement of paper PMC10126150.

± gives the standard deviation of the averaged measurements.
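Further: ATP exposure 15 min at 22 °C before imaging.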

In the data set the test system is ATP. The data set can be described thus: switch fluorescence ratio, 500 uM ATP over buffer (Cy3 cluster intensity, sum of 5 cycles each) (fold (ratio)); higher = stronger signal-on switching upon ATP binding; sequences stand for … in TCGTCGGCAGCGTCAGATGTGTATAAGAGACAGTTTTTTTTTTTTTTTTTTTTTTTTT…TC. As to conditions: aptamer strand: ATP DNA aptamer (quencher-CACCTGGGGGAGTATTGCGGAGGAAGG + anchor), 100 nM annealed; ATP concentration: 500 uM. Summed up:
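Cy3-labelled switching-strand clusters on a modified Illumina MiSeq flow-cell were annealed to 100 nM quencher-labelled ATP aptamer, imaged in selection buffer, then imaged after 15 min with 500 uM ATP at 22 °C. Five buffer/ATP cycles ran, with NaOH stripping and re-annealing between them. The fluorescence ratio is summed target-cycle over summed buffer-cycle Cy3 intensity per cluster, averaged per switch-domain sequence. Clusters outside 100-1000 RFU were excluded.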
On to CCGGGAAGGC, for which the switch fluorescence ratio was determined as 2.043 ± 0.0097. As for GACTAAGGGG, the switch fluorescence ratio stood at 1 ± 0.02. With GATTGCAGAT the figure was 1.02 ± 0.034; with ACCAGGTCGT, 1.51 ± 0.05. With TGGGGTTAAT the figure was 0.997 ± 0.028. Consider TGGTAGCTGT, for which the switch fluorescence ratio turned out to be 1.01 ± 0.062. With ACATAGTAAT the figure was 1.001 ± 0.0092; with CAATAAAAG, 0.9766 ± 0.0071. With ATGTACGCGT the figure was 0.995 ± 0.024; with TTCCACATCC, 1.07 ± 0.044. As to AGGGGAATAT, the switch fluorescence ratio was found to be 1.03 ± 0.017.

On to TAAGCTGACG, for which the switch fluorescence ratio was found to be 0.9973 ± 0.0098. Consider AGAGAGAAAG, for which the switch fluorescence ratio turned out to be 0.97 ± 0.025. Regarding TCGGGTGGTG, the switch fluorescence ratio is 0.92 ± 0.16. For the sequence GGTGATTGAC, the switch fluorescence ratio is 1.18 ± 0.3. On to TTTATGGCTA, for which the switch fluorescence ratio amounted to 1.03 ± 0.011. GGTATTGGTA: the switch fluorescence ratio amounted to 1.13 ± 0.25. Turning to ATGAAAATTA, the switch fluorescence ratio was found to be 0.975 ± 0.025. With CTCATAGACA the figure was 1.03 ± 0.08. As for TGGAACACCT, the switch fluorescence ratio amounted to 1.13 ± 0.041. For TTGGGTGAGG, the switch fluorescence ratio was 0.98 ± 0.028. In the case of ATTGGTAACC, the switch fluorescence ratio was 1.01 ± 0.039.

For TGGGCTGGGG, the switch fluorescence ratio came out at 1.04 ± 0.023. With TGCCTATGGG the figure was 0.977 ± 0.029; with TTCGTCATTT, 0.983 ± 0.034. Take AGCAGGGGTA: the switch fluorescence ratio is 1.17 ± 0.26.

Regarding CGGATCCAGG, the switch fluorescence ratio came out at 1.35 ± 0.042. Turning to ATCGGTCAGC, the switch fluorescence ratio was found to be 0.982 ± 0.022. For the sequence TAGTGAGTAC, the switch fluorescence ratio came to 0.93 ± 0.11. As for CACTCTTGAT, the switch fluorescence ratio turned out to be 1.01 ± 0.019. On to TTTAGACGGT, for which the switch fluorescence ratio turned out to be 1.02 ± 0.066.

TGGGTATGG: the switch fluorescence ratio was 1.07 ± 0.072. With TTTTGGAAGG the figure was 1.02 ± 0.0083; with TGGCAGGGGG, 0.945 ± 0.029; with ATACGGGATT, 1.044 ± 0.0064. As for CGTGTGTTGA, the switch fluorescence ratio amounted to 1.01 ± 0.013. On to TTTGATCGGG, for which the switch fluorescence ratio was 0.978 ± 0.015. With GGCCGAAGGG the figure was 1.03 ± 0.066; with CTCGGAATGG, 1.08 ± 0.043; with GGACGATGGT, 1 ± 0.026. For AAGGTCGCGT, the switch fluorescence ratio stood at 0.9906 ± 0.0039. Take GCTGGGTGTG: the switch fluorescence ratio turned out to be 1.03 ± 0.011. As to TGGTTTGTGG, the switch fluorescence ratio was 0.974 ± 0.037. For the sequence TGGAGGGCTA, the switch fluorescence ratio came to 0.97 ± 0.032.

Turning to CGGGTGGCTG, the switch fluorescence ratio was 0.995 ± 0.035. Turning to GCCAGTAATA, the switch fluorescence ratio was found to be 1.1 ± 0.034. With TAGTGGATGG the figure was 1 ± 0.029. Regarding CGGAGAATAG, the switch fluorescence ratio came out at 1.234 ± 0.012. On to GGAACGGGGG, for which the switch fluorescence ratio turned out to be 1.02 ± 0.014. AAAGCGGGTC: the switch fluorescence ratio was determined as 1.04 ± 0.015. Consider GACAGAAGGC, for which the switch fluorescence ratio stood at 1 ± 0.052.

Consider GTGTTAGTAT, for which the switch fluorescence ratio came to 1.02 ± 0.031. With CGATTCGGGG the figure was 1.01 ± 0.03; with TGATTAGCAA, 1.26 ± 0.3; with GTTTGTCCGA, 1.01 ± 0.012. CTGTACGGAT: the switch fluorescence ratio was 1.95 ± 1.7. Consider ATAGGCATTT, for which the switch fluorescence ratio worked out at 1.03 ± 0.013. With CCTTTTGGGG, the switch fluorescence ratio was determined as 1.03 ± 0.061.

Consider AGGTATTTTT, for which the switch fluorescence ratio was 1.009 ± 0.0042. With CTATGAATGG the figure was 0.975 ± 0.057.

As for TCGAATAATT, the switch fluorescence ratio turned out to be 1 ± 0.041. CTTGTCGTGC: the switch fluorescence ratio was 0.995 ± 0.033. TTTAATAAGG: the switch fluorescence ratio was found to be 0.9962 ± 0.0027. For the sequence TAACGGGGCA, the switch fluorescence ratio was found to be 0.9842 ± 0.003. With GTTACTGGAC, the switch fluorescence ratio is 1.12 ± 0.14. As to CAGGAAGCGG, the switch fluorescence ratio is 1.025 ± 0.0027. Consider CATTGAATGG, for which the switch fluorescence ratio is 1 ± 0.015. As to GATGGGACAA, the switch fluorescence ratio came to 1.008 ± 0.0027. GTGGGTTGGA: the switch fluorescence ratio amounted to 0.993 ± 0.033. Regarding TATGCAGTTT, the switch fluorescence ratio amounted to 0.968 ± 0.026. TGAAAGTTGG: the switch fluorescence ratio was determined as 0.997 ± 0.013. On to CAGTGCCTGT, for which the switch fluorescence ratio was 1.01 ± 0.034. For the sequence ACTAAAATAT, the switch fluorescence ratio was determined as 1.021 ± 0.0093. As for GTTATAAAAA, the switch fluorescence ratio was 1.01 ± 0.07. For TTTGTCGACC, the switch fluorescence ratio was 0.992 ± 0.0055.

For the sequence TCGTCCGAAG, the switch fluorescence ratio was 1.45 ± 0.04. As to ATATAGAAAG, the switch fluorescence ratio came out at 1.02 ± 0.045. Turning to TGGTTTGGGC, the switch fluorescence ratio is 0.984 ± 0.034. Take TAATTTACAG: the switch fluorescence ratio stood at 1 ± 0.03. For the sequence ACGGTTCTTT, the switch fluorescence ratio was determined as 1.01 ± 0.03. Turning to ATTTTAAAGG, the switch fluorescence ratio turned out to be 0.977 ± 0.027. As to CAAGGTTGAG, the switch fluorescence ratio was determined as 0.979 ± 0.034. With TTTAGTTTTT the figure was 0.996 ± 0.042; with GGCAGAGCTG, 1.016 ± 0.01; with CGCGGGTTGA, 1.053 ± 0.0094. As for TGGGATTGTA, the switch fluorescence ratio was 0.987 ± 0.024. Take TGTGGGGAAG: the switch fluorescence ratio is 0.989 ± 0.016.

On to AAGGTAGCAC, for which the switch fluorescence ratio turned out to be 1.03 ± 0.011. With AAGGGTGAC, the switch fluorescence ratio came to 1.01 ± 0.032. Turning to TGAGAATGGG, the switch fluorescence ratio stood at 0.995 ± 0.044. For TATTGTGGGT, the switch fluorescence ratio came to 0.98 ± 0.035. Regarding TACTACTTCT, the switch fluorescence ratio is 1.02 ± 0.023. Regarding AAATGGCCAC, the switch fluorescence ratio turned out to be 1.01 ± 0.035. In the case of ACACCTAGGC, the switch fluorescence ratio stood at 1.12 ± 0.054. Take GAATTAAGTT: the switch fluorescence ratio was 1.01 ± 0.033.

GATGTGTTGG: the switch fluorescence ratio stood at 0.9595 ± 0.0048. With ACCCCGGTCG the figure was 1.167 ± 0.0062; with TCACGGTAGG, 0.999 ± 0.012; with TGTGTACAGG, 0.978 ± 0.017.

Turning to CGAATTTGCT, the switch fluorescence ratio was found to be 1.01 ± 0.0079. With AGGAATCGTT the figure was 0.9969 ± 0.0072; with CTTTGTTTTT, 0.9893 ± 0.0089; with CGGCGGGTCT, 0.98 ± 0.052.

With ATAGTACAGG, the switch fluorescence ratio is 1.08 ± 0.011. With ATAATCTGCG the figure was 1.01 ± 0.012; with CACACAGTAT, 1.0721 ± 0.00011; with TAGGGTAATT, 0.9965 ± 0.0041. Take GGGGATGGTG: the switch fluorescence ratio was found to be 1 ± 0.035. With ATTGGTGATT the figure was 0.974 ± 0.038. As for TTGTGCGAAA, the switch fluorescence ratio turned out to be 1.01 ± 0.059. With GCGGTGACCG the figure was 0.9978 ± 0.0046. As to GAGATTGGGT, the switch fluorescence ratio is 1.001 ± 0.0077. As to TGTTGCTGGG, the switch fluorescence ratio was determined as 1 ± 0.026. With GATGGTTTCC the figure was 1.02 ± 0.0017. For ACTTTATTAG, the switch fluorescence ratio stood at 1.0103 ± 0.00038.

Regarding AAGGGGTCTT, the switch fluorescence ratio came to 0.981 ± 0.027.

Consider GGTGGCGGAT, for which the switch fluorescence ratio worked out at 1.07 ± 0.033. Regarding GGGTCTGGTT, the switch fluorescence ratio worked out at 0.976 ± 0.033. With TAACTATTTT, the switch fluorescence ratio is 1.01 ± 0.016.

TACGTTTTAA: the switch fluorescence ratio is 0.9938 ± 0.0087.
